Laboratory results published in patent US20150344570A1 (published 2015).

What was measured:
[1] = target: T1, FcγRIIIa extracellular domain with C-terminal His tag (human, UniProt P08637 17-208); experiment: SPR, binding relative to GpH7-A5/GpH7-B3/GpL16-k0 = 100
T1 construct: extracellular domain; also called 3a; FcgRIIIa
Protocol: (§1) The heterodimerized antibodies He Abs in which one of the H chains was introduced with an alteration were assayed for their binding activities to each activating FcγR and inhibitory FcγR according to the method described in Example 4. […] The activating FcγRs in FIGS. 26, 27, 28, and 29 are FcγRIa, FcγRIIa (R), FcγRIIa (H), and FcγRIIIa, respectively.
(§2) Analysis of interaction between objective antibody and the FcγR was carried out using Biacore T100 (GE Healthcare). HBS-EP+ (GE Healthcare) was used as the running buffer, and the measurement temperature was set to 25° C. Chips produced by immobilizing the antigen peptide by the amine coupling method to a Series S Sencor Chip CM5 (GE Healthcare), or alternatively, chips produced by allowing preliminarily biotinylated antigen peptides to interact with and immobilize onto a Series S Sensor Chip SA (certified) (GE Healthcare) were used. Antibodies of interest were captured onto an antigen peptide-immobilized chip, and allowed to interact to each FcγR diluted with running buffer. To regenerate and repeatedly use the chip, the antibodies captured on the chip were washed off by reacting 10 mM glycine-HCl, pH 1.5.

[2] = target: T2, FcγRIIb extracellular domain with C-terminal His tag (human, UniProt P31994 43-217); experiment: as above
T2 construct: extracellular domain; also called 2b; FcgRIIb
T2 sequence (looked up): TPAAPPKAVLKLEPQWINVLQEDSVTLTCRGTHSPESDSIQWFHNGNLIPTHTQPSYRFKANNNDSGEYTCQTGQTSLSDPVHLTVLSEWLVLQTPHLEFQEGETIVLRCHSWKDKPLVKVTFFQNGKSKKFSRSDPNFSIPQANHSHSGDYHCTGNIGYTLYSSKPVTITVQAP
Protocol: as §1, §2

T1 sequence (P08637 17-208): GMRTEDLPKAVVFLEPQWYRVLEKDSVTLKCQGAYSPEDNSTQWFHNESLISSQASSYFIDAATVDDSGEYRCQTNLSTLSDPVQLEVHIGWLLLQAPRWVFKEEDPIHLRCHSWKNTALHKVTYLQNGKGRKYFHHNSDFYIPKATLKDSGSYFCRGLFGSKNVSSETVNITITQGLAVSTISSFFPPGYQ

B1: GpH7-A5/GpH7-B3 variant A330_08L/GpL16-k0 (antibody, human IgG1, kappa)
heavy 1: not shown
heavy 2: not shown
light: DIVMTQSPLSLPVTPGEPASISCQASESLVHSNRNTYLHWYLQKPGQSPQLLIYKVSNRFSGVPDRFSGSGSGTDFTLKISRVEAEDVGVYYCSQNTHVPPTFGQGTKVEIERTVAAPSVFIFPPSDEQLKSGTASVVCLLNNFYPREAKVQWKVDNALQSGNSQESVTEQDSKDSTYSLSSTLTLSKADYEKHKVYACEVTHQGLSSPVTKSFNRGEC
notes: also called He Ab
He/Con_3a [1]: 124 % of control
He/Con_2b [2]: 70.5 % of control

B2: GpH7-A5/GpH7-B3 variant I336_10E/GpL16-k0 (antibody, human IgG1, kappa)
heavy 1: not shown
heavy 2: not shown
light: B1 light
notes: also called He Ab
He/Con_3a [1]: 119 % of control
He/Con_2b [2]: 89.8 % of control

B3: GpH7-A5/GpH7-B3 variant K334_01G/GpL16-k0 (antibody, human IgG1, kappa)
heavy 1: not shown
heavy 2: not shown
light: B1 light
notes: also called He Ab
He/Con_3a [1]: 121 % of control
He/Con_2b [2]: 92.5 % of control

B4: GpH7-A5/GpH7-B3 variant E333_04F/GpL16-k0 (antibody, human IgG1, kappa)
heavy 1: not shown
heavy 2: not shown
light: B1 light
notes: also called He Ab
He/Con_3a [1]: 101 % of control
He/Con_2b [2]: 94.6 % of control

B5: GpH7-A5/GpH7-B3 variant I336_09D/GpL16-k0 (antibody, human IgG1, kappa)
heavy 1: not shown
heavy 2: not shown
light: B1 light
notes: also called He Ab
He/Con_3a [1]: 106 % of control
He/Con_2b [2]: 92.1 % of control

B6: GpH7-A5/GpH7-B3 variant S324_15Y/GpL16-k0 (antibody, human IgG1, kappa)
heavy 1: not shown
heavy 2: not shown
light: B1 light
notes: also called He Ab
He/Con_3a [1]: 101 % of control
He/Con_2b [2]: 88.2 % of control

B7: GpH7-A5/GpH7-B3 variant E333_16H/GpL16-k0 (antibody, human IgG1, kappa)
heavy 1: not shown
heavy 2: not shown
light: B1 light
notes: also called He Ab
He/Con_3a [1]: 103 % of control
He/Con_2b [2]: 83.3 % of control

B8: GpH7-A5/GpH7-B3 variant I332_19Q/GpL16-k0 (antibody, human IgG1, kappa)
heavy 1: not shown
heavy 2: not shown
light: B1 light
notes: also called He Ab
He/Con_3a [1]: 110 % of control
He/Con_2b [2]: 94.3 % of control

B9: GpH7-A5/GpH7-B3 variant S324_16H/GpL16-k0 (antibody, human IgG1, kappa)
heavy 1: not shown
heavy 2: not shown
light: B1 light
notes: also called He Ab
He/Con_3a [1]: 104 % of control
He/Con_2b [2]: 83.5 % of control

B10: GpH7-A5/GpH7-B3 variant E333_20W/GpL16-k0 (antibody, human IgG1, kappa)
heavy 1: not shown
heavy 2: not shown
light: B1 light
notes: also called He Ab
He/Con_3a [1]: 101 % of control
He/Con_2b [2]: 89.5 % of control

B11: GpH7-A5/GpH7-B3 variant E333_03V/GpL16-k0 (antibody, human IgG1, kappa)
heavy 1: not shown
heavy 2: not shown
light: B1 light
notes: also called He Ab
He/Con_3a [1]: 103 % of control
He/Con_2b [2]: 93.2 % of control

B12: GpH7-A5/GpH7-B3 variant I336_03V/GpL16-k0 (antibody, human IgG1, kappa)
heavy 1: not shown
heavy 2: not shown
light: B1 light
notes: also called He Ab
He/Con_3a [1]: 112 % of control
He/Con_2b [2]: 90.3 % of control

B13: GpH7-A5/GpH7-B3 variant D270_10E/GpL16-k0 (antibody, human IgG1, kappa)
heavy 1: not shown
heavy 2: not shown
light: B1 light
notes: also called He Ab
He/Con_3a [1]: 123 % of control
He/Con_2b [2]: 76.5 % of control

B14: GpH7-A5/GpH7-B3 variant I332_13S/GpL16-k0 (antibody, human IgG1, kappa)
heavy 1: not shown
heavy 2: not shown
light: B1 light
notes: also called He Ab
He/Con_3a [1]: 104 % of control
He/Con_2b [2]: 98.4 % of control

B15: GpH7-A5/GpH7-B3 variant S298_02A/GpL16-k0 (antibody, human IgG1, kappa)
heavy 1: not shown
heavy 2: not shown
light: B1 light
notes: also called He Ab; GpH7-A5/GpH7-B3-15-02A/GpL16-k0
He/Con_3a [1]: 160 % of control
He/Con_2b [2]: 73.4 % of control

B16: GpH7-A5/GpH7-B3 variant S324_09D/GpL16-k0 (antibody, human IgG1, kappa)
heavy 1: not shown
heavy 2: not shown
light: B1 light
notes: also called He Ab
He/Con_3a [1]: 101 % of control
He/Con_2b [2]: 85.8 % of control

B17: GpH7-A5/GpH7-B3 variant S298_14T/GpL16-k0 (antibody, human IgG1, kappa)
heavy 1: not shown
heavy 2: not shown
light: B1 light
notes: also called He Ab
He/Con_3a [1]: 113 % of control
He/Con_2b [2]: 77.9 % of control

B18: GpH7-A5/GpH7-B3 variant Q295_14T/GpL16-k0 (antibody, human IgG1, kappa)
heavy 1: not shown
heavy 2: not shown
light: B1 light
notes: also called He Ab
He/Con_3a [1]: 115 % of control
He/Con_2b [2]: 66.8 % of control

B19: GpH7-A5/GpH7-B3 variant E333_13S/GpL16-k0 (antibody, human IgG1, kappa)
heavy 1: not shown
heavy 2: not shown
light: B1 light
notes: also called He Ab
He/Con_3a [1]: 103 % of control
He/Con_2b [2]: 81.8 % of control

B20: GpH7-A5/GpH7-B3 variant I336_14T/GpL16-k0 (antibody, human IgG1, kappa)
heavy 1: not shown
heavy 2: not shown
light: B1 light
notes: also called He Ab
He/Con_3a [1]: 108 % of control
He/Con_2b [2]: 89.5 % of control

B21: GpH7-A5/GpH7-B3 variant S337_04F/GpL16-k0 (antibody, human IgG1, kappa)
heavy 1: not shown
heavy 2: not shown
light: B1 light
notes: also called He Ab
He/Con_3a [1]: 101 % of control
He/Con_2b [2]: 97.8 % of control

B22: GpH7-A5/GpH7-B3 variant I336_13S/GpL16-k0 (antibody, human IgG1, kappa)
heavy 1: not shown
heavy 2: not shown
light: B1 light
notes: also called He Ab
He/Con_3a [1]: 102 % of control
He/Con_2b [2]: 83.7 % of control

B23: GpH7-A5/GpH7-B3 variant S337_01G/GpL16-k0 (antibody, human IgG1, kappa)
heavy 1: not shown
heavy 2: not shown
light: B1 light
notes: also called He Ab
He/Con_3a [1]: 102 % of control
He/Con_2b [2]: 92 % of control

B24: GpH7-A5/GpH7-B3 variant E333_09D/GpL16-k0 (antibody, human IgG1, kappa)
heavy 1: not shown
heavy 2: not shown
light: B1 light
notes: also called He Ab
He/Con_3a [1]: 112 % of control
He/Con_2b [2]: 94.3 % of control

B25: GpH7-A5/GpH7-B3 variant E333_02A/GpL16-k0 (antibody, human IgG1, kappa)
heavy 1: not shown
heavy 2: not shown
light: B1 light
notes: also called He Ab
He/Con_3a [1]: 105 % of control
He/Con_2b [2]: 83.8 % of control

B26: GpH7-A5/GpH7-B3 variant S324_01G/GpL16-k0 (antibody, human IgG1, kappa)
heavy 1: not shown
heavy 2: not shown
light: B1 light
notes: also called He Ab
He/Con_3a [1]: 105 % of control
He/Con_2b [2]: 81.1 % of control

B27: GpH7-A5/GpH7-B3 variant K334_09D/GpL16-k0 (antibody, human IgG1, kappa)
heavy 1: not shown
heavy 2: not shown
light: B1 light
notes: also called He Ab
He/Con_3a [1]: 160 % of control
He/Con_2b [2]: 94.8 % of control

B28: GpH7-A5/GpH7-B3 variant S324_14T/GpL16-k0 (antibody, human IgG1, kappa)
heavy 1: not shown
heavy 2: not shown
light: B1 light
notes: also called He Ab
He/Con_3a [1]: 103 % of control
He/Con_2b [2]: 88.4 % of control

B29: GpH7-A5/GpH7-B3 variant I336_02A/GpL16-k0 (antibody, human IgG1, kappa)
heavy 1: not shown
heavy 2: not shown
light: B1 light
notes: also called He Ab
He/Con_3a [1]: 111 % of control
He/Con_2b [2]: 84.9 % of control

B30: GpH7-A5/GpH7-B3 variant S324_02A/GpL16-k0 (antibody, human IgG1, kappa)
heavy 1: not shown
heavy 2: not shown
light: B1 light
notes: also called He Ab
He/Con_3a [1]: 104 % of control
He/Con_2b [2]: 78.3 % of control

B31: GpH7-A5/GpH7-B3 variant A330_15Y/GpL16-k0 (antibody, human IgG1, kappa)
heavy 1: not shown
heavy 2: not shown
light: B1 light
notes: also called He Ab
He/Con_3a [1]: 125 % of control
He/Con_2b [2]: 95 % of control

B32: GpH7-A5/GpH7-B3 variant I332_01G/GpL16-k0 (antibody, human IgG1, kappa)
heavy 1: not shown
heavy 2: not shown
light: B1 light
notes: also called He Ab
He/Con_3a [1]: 111 % of control
He/Con_2b [2]: 87.1 % of control

B33: GpH7-A5/GpH7-B3 variant S324_20W/GpL16-k0 (antibody, human IgG1, kappa)
heavy 1: not shown
heavy 2: not shown
light: B1 light
notes: also called He Ab
He/Con_3a [1]: 102 % of control
He/Con_2b [2]: 87.5 % of control

B34: GpH7-A5/GpH7-B3 variant I336_18N/GpL16-k0 (antibody, human IgG1, kappa)
heavy 1: not shown
heavy 2: not shown
light: B1 light
notes: also called He Ab
He/Con_3a [1]: 104 % of control
He/Con_2b [2]: 97.6 % of control

B35: GpH7-A5/GpH7-B3 variant Q295_10E/GpL16-k0 (antibody, human IgG1, kappa)
heavy 1: not shown
heavy 2: not shown
light: B1 light
notes: also called He Ab
He/Con_3a [1]: 100 % of control
He/Con_2b [2]: 94.8 % of control

B36: GpH7-A5/GpH7-B3 variant Q295_02A/GpL16-k0 (antibody, human IgG1, kappa)
heavy 1: not shown
heavy 2: not shown
light: B1 light
notes: also called He Ab
He/Con_3a [1]: 106 % of control
He/Con_2b [2]: 79.7 % of control

B37: GpH7-A5/GpH7-B3 variant T335_05P/GpL16-k0 (antibody, human IgG1, kappa)
heavy 1: not shown
heavy 2: not shown
light: B1 light
notes: also called He Ab
He/Con_3a [1]: 105 % of control
He/Con_2b [2]: 99.9 % of control

B38: GpH7-A5/GpH7-B3 variant A330_16H/GpL16-k0 (antibody, human IgG1, kappa)
heavy 1: not shown
heavy 2: not shown
light: B1 light
notes: also called He Ab
He/Con_3a [1]: 104 % of control
He/Con_2b [2]: 87.6 % of control

B39: GpH7-A5/GpH7-B3 variant A330_20W/GpL16-k0 (antibody, human IgG1, kappa)
heavy 1: not shown
heavy 2: not shown
light: B1 light
notes: also called He Ab
He/Con_3a [1]: 104 % of control
He/Con_2b [2]: 76.1 % of control

B40: GpH7-A5/GpH7-B3 variant S298_03V/GpL16-k0 (antibody, human IgG1, kappa)
heavy 1: not shown
heavy 2: not shown
light: B1 light
notes: also called He Ab
He/Con_3a [1]: 109 % of control
He/Con_2b [2]: 64.5 % of control
